Measured values taken from patent US20230057263A1 (CYTOMX THERAPEUTICS, published 2023).
No end group written: not given here. *: point of attachment. Biotin = O=C1N[C@H]2[C@H](CS[C@H]2CCCCC(=O)*)N1; code X = not defined here

Assays:
Test in all cases: Luminex bead assay [Cont.]
[1] = target: T1, B X MGGITQTPYKVSISG (reading uncertain)
T1 construct: row 8 of the chart; also called biotinylated 15-mer, residues 7-21
T1 peptide: {Biotin-code X}-MGGITQTPYKVSISG
Experimental: (§1) A set of experiments was performed to map the epitope recognized by the anti-CD3ε antibodies. In these experiments, the anti-CD3ε antibodies were assessed for binding to a collection of overlapping 15-mer peptides spanning amino acids 1-27 of human CD3ε protein using a Luminex bead assay. Control CD3 proteins, control peptides, or the test peptides were immobilized on Luminex beads and incubated with a panel of anti-CD3 antibodies. Binding of the anti-CD3 antibodies to the peptide/protein immobilized on the Luminex bead was detected by R-Phycoerythrin conjugated secondary antibody.
(§2) Recombinant CD3 proteins (human CD3d/e heterodimer and cynomolgus CD3-epsilon (Sinobiological)) and control peptides (#p1, #p2, and #p3) were conjugated to Luminex beads using standard EDC/Sulfo-NHS chemistry. The 15-mer test peptides were synthesized as biotinylated peptides at JPT Peptide Technologies Gmbh and were immobilized on streptavidin-conjugated Luminex beads that were made using standard EDC/Sulfo-NHS chemistry and streptavidin (Invitrogen Cat. No. 434301 lot 1626028A). The Luminex beads with immobilized peptides or reagents were incubated with 50 ul of a panel of anti-CD3 antibodies (1 ug/ml) for one hour at room temperature, washed two times, incubated with mixture of anti-human and anti-mouse IgG-RPE (Jackson Immunoresearch 109-116-097 and Southern Biotech 1030-09, respectively) for 30 mins at RT, washed three times, and analyzed in the Luminex instrument to assess the level of bound anti-CD3 antibodies.

[2] = target: T2, (H2N-KEFSELEQSGYYVCYPRGSNPEDA-OH) vCD3e #p3-BSA (conjugated to BSA)
T2 construct: also called control peptide #p3
T2 peptide: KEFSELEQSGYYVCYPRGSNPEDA
Experimental: as §1, §2

[3] = target: T3, B X EMGGITQTPYKVSIS (reading uncertain)
T3 construct: row 7 of the chart; also called biotinylated 15-mer, residues 6-20
T3 peptide: {Biotin-code X}-EMGGITQTPYKVSIS
Experimental: as §1, §2

[4] = target: T4, B X QDANEEMGGITQTP (reading uncertain)
T4 construct: row 17 of the chart; 14 residues; also called alanine-scan peptide G3A
T4 peptide: {Biotin-code X}-QDANEEMGGITQTP
Experimental: as §1, §2

[5] = target: T5, B X TQTPYKVSISGTTVI (reading uncertain)
T5 construct: row 12 of the chart; also called biotinylated 15-mer, residues 11-25
T5 peptide: {Biotin-code X}-TQTPYKVSISGTTVI
Experimental: as §1, §2

[6] = target: T6, B X QAGNEEMGGITQTP (reading uncertain)
T6 construct: row 16 of the chart; also called alanine-scan peptide D2A
T6 peptide: {Biotin-code X}-QAGNEEMGGITQTP
Experimental: as §1, §2

[7] = target: T7, B X TPYKVSISGTTVILT (reading uncertain)
T7 construct: row 14 of the chart; also called biotinylated 15-mer, residues 13-27
T7 peptide: {Biotin-code X}-TPYKVSISGTTVILT
Experimental: as §1, §2

[8] = target: T8, B X NEEMGGITQTPYKVS (reading uncertain)
T8 construct: row 5 of the chart; also called biotinylated 15-mer, residues 4-18
T8 peptide: {Biotin-code X}-NEEMGGITQTPYKVS
Experimental: as §1, §2

Measured: binding result

B1: 6d59 (antibody, V domains shown)
VH: QVHLVESGGGVVQPGRSLRLSCAASGFKFRSYGMHWVRQAPGKGLEWVAIIWYDGSKRYYADSVKGRFTISRDNSKNTLYLQMSSLRAEDTAVYYCARDLITGTTDYWGQGTLVTVSS
VL: DVVMTQSPLSLPVTLGQPASISCRSSRSLVYSDGNTHLIWFQQRPGQSPRRLIYRVSNRVSGVPDRFSGSGSGTDFTLKISRVEAEDVGVYYCLQGAHWPYTFGQGTKLEIKR
notes: also called 6d59.1; VCD3-6d59.1
no binding (tested: 1 ug/ml): all assays above
